The source of these data is PMC10404669, “Vanillyl alcohol oxidase from Diplodia corticola: Residues Ala420 and Glu466 allow for efficient catalysis of syringyl derivatives” (The Journal of Biological Chemistry, 2023).

Substrate in series [1]: COc1cc(CO)ccc1O
Put plainly: Michaelis-Menten kinetics, purified enzyme, xylenol orange H2O2 assay (KM). As to conditions: FAD (covalently bound) catalytic center; pH 7.5; 25.0 °C. It is filed as biochemical, Diplodia corticola.

Substrate in series [2]: CCCCOCc1ccc(O)c(OC)c1
Described as above. Format: biochemical, Diplodia corticola. As to conditions: FAD (covalently bound) catalytic center; pH 7.5; 25.0 °C.

Substrate in series [3]: COCc1ccc(O)c(OC)c1
Described as above. Format: biochemical, Diplodia corticola. The note with it: FAD (covalently bound) catalytic center; pH 7.5; 25.0 °C.

Substrate in series [4]: CCOCc1ccc(O)c(OC)c1
Described as above. As to conditions: FAD (covalently bound) catalytic center; Ala420 and Glu466 near the substrate (docking); pH 7.5; 25.0 °C. Format: biochemical, Diplodia corticola.

Substrate in series [5]: C=CCc1ccc(O)c(OC)c1
Put plainly: steady-state kinetics, purified enzyme, xylenol orange H2O2 assay (KM, Hill fit). Format: biochemical, Diplodia corticola. As to conditions: FAD (covalently bound) catalytic center; pH 7.5; 25.0 °C.

Substrate in series [6]: COc1cc(CO)ccc1O
Put plainly: Michaelis-Menten kinetics, purified enzyme, xylenol orange H2O2 assay (KM). Format: biochemical, Penicillium simplicissimum. The note with it: FAD (covalently bound) catalytic center; pH 7.5; 25.0 °C.

Substrate in series [7]: COCc1ccc(O)c(OC)c1
The series is described as above. Format: biochemical, Penicillium simplicissimum. The note with it: FAD (covalently bound) catalytic center; pH 7.5; 25.0 °C.

Substrate in series [8]: CCOCc1ccc(O)c(OC)c1
The description is as above. Format: biochemical, Penicillium simplicissimum. The note with it: FAD (covalently bound) catalytic center; pH 7.5; 25.0 °C.

Substrate in the series “purified protein”: C=CCc1ccc(O)c(OC)c1
Put plainly: purified protein. The note with it: FAD (covalently bound) catalytic center; pH 7.5; 25.0 °C. It is filed as biochemical, Penicillium simplicissimum.

B1: DcVAO (vanillyl alcohol oxidase) (Diplodia corticola) (protein)
chain: MSLSRPLALPPGVSESTFHQFIERITKTTPDVTIVESKDQFPDGGYHEPPSSHDPFYVQDKDHFIASAFVCPRSVDEVQDIVRAAGDFVIPLWPTSLGRNLGYGGAAPRVRGSVVLNLGKHMNRILEVNVEGAYALVEPGVTFEALHNYLVEHNLRDKLWLDVPDLGGGSVLGNTLERGVGYTPYGDHFMMHSGMEVVLANGELLRTGMGALPAPKSETEGVTKLHEEPGNKCWQLFPYGFGPYNDGLFSQSNLGIVTKLGLGLMPNPGGYQSYLITIPGEEDLHKAVEIIRPLRLNNVIQNVPTLRYVLLDAGMMGHKSDYTSSTSPIDEATTDAIAKKLNLGRWNFYGALYGPPEIRTAMWKLIHAAFSAIPGARFFFPDDVADPRAVLHNRHNVLQGIPSYEELRWVDWVPNGAHVAFSPISRISGADAARQVDLAKRRCRDAGFDYMGTFTVGMREMHHIVEIVFDRTDAGQRKRAEALVRGLVDECAALGWGEYRTHLAFMDQIAGTYGWGGGALGRFNERVKEALDPKGILAPGKSGVWGSRFGELKGKL
Consider B1, for which the Km (as a rule, the concentration of substrate that gives half-maximal velocity) in series [1] was found to be 297 ± 21 µM; in series [2], 258 ± 27 µM; in series [3], 263 ± 12 µM; in series [4], 198 ± 19 µM; in series [5], 60 ± 3 µM. Moreover, the kcat (usually the number of substrate molecules converted per active site and unit of time at saturation) in [1] is 4 ± 0.1 s⁻¹; in [2] it was 2.1 ± 0.1 s⁻¹; in [3], 1.9 ± 0.01 s⁻¹; in series [4] it was 4.7 ± 0.2 s⁻¹; in series [5], 10.3 ± 0.1 s⁻¹.

B2: PsVAO (vanillyl alcohol oxidase) (Penicillium simplicissimum) (protein)
chain: MSKTQEFRPLTLPPKLSLSDFNEFIQDIIRIVGSENVEVISSKDQIVDGSYMKPTHTHDPHHVMDQDYFLASAIVAPRNVADVQSIVGLANKFSFPLWPISIGRNSGYGGAAPRVSGSVVLDMGKNMNRVLEVNVEGAYCVVEPGVTYHDLHNYLEANNLRDKLWLDVPDLGGGSVLGNAVERGVGYTPYGDHWMMHSGMEVVLANGELLRTGMGALPDPKRPETMGLKPEDQPWSKIAHLFPYGFGPYIDGLFSQSNMGIVTKIGIWLMPNPRGYQSYLITLPKDGDLKQAVDIIRPLRLGMALQNVPTIRHILLDAAVLGDKRSYSSRTEPLSDEELDKIAKQLNLGRWNFYGALYGPEPIRRVLWETIKDAFSAIPGVKFYFPEDTPENSVLRVRDKTMQGIPTYDELKWIDWLPNGAHLFFSPIAKVSGEDAMMQYAVTKKRCQEAGLDFIGTFTVGMREMHHIVCIVFNKKDLIQKRKVQWLMRTLIDDCAANGWGEYRTHLAFMDQIMETYNWNNSSFLRFNEVLKNAVDPNGIIAPGKSGVWPSQYSHVTWKL
Turning to B2, the Km was 144 ± 10 µM in series [6], 155 ± 5 µM in series [7], 86 ± 3 µM in series [8] and 67 ± 2 µM in “purified protein”. In addition, the catalytic constant (kcat) in series [6] was 6.7 ± 0.1 s⁻¹; in [7], 7.9 ± 0.1 s⁻¹; in series [8] it was 2.6 ± 0.02 s⁻¹; in the series “purified protein”, 18.7 ± 0.5 s⁻¹.
